Test results published in article PMC9237108, “The Vibrio vulnificus stressosome is an oxygen-sensor involved in regulating iron metabolism” (Communications Biology, 2022).

B1: VvRsbR, recombinant, untagged, co-expressed with VvRsbS (natural protein, Vibrio vulnificus CMCP6, UniProt A0A3Q0KX46 1-306, looked up)
chain: MSLGSVLNKVEDADELLKLHDLTEADLALIRKFGQIMVPKLDEYVKHFYDWLRNTPEYEQYFGDAQKLQRVQDSQVRYWKTFFDARIDSAYLKERRDVGEIHARVGLPLPTYFAGMNISMVIFTKRMYDGSLYSDEYSSLVTAFTKLLHLDTTIVVDTYSRLINKRISEQSEALLAMSTPVTMIWQDILMLPIVGIIDSKRAQDIMSAVLNKISENRAKIFIMDISGVAVVDTAVANHFIKITKATKLMGCDCLVSGVSPSIARTMVQLGINVGEVRTNATLRDALENAFKIVGLTVSGLKHFPHE
notes: VvRsbR of Vibrio vulnificus CMCP6, locus VV2_0073; full-length gene amplified from genomic DNA, expressed untagged from pJPF012; Carries a heme in its N-terminal globin coupled sensor domain; In PDB 7O01 the linker helix was modelled as poly-alanine; also called VvRsbR2 (dimer)
B2: VvRsbS, recombinant, untagged, co-expressed with VvRsbR (natural protein, Vibrio vulnificus CMCP6, UniProt A0A3Q0KX63 1-117, looked up)
chain: MTMQSAISISKLQDVLIASVQVDLTESTLRDFSLDLLDAVKSTRAKGVMIELSGVKTLDGESMHRLLDVVKTVEVMGRRCLLVGLRPGVVIGLMDIGIDLASTLCVADLEQGFLYLE
notes: VvRsbS of Vibrio vulnificus CMCP6, locus VV2_0074; STAS domain made up of 115 residues; also called VvRsbS2 (dimer)

Key:
[1] = target: the molecule itself; assay: cryo-EM structure; purified, oxidized VvRsbR:VvRsbS complex (co-expressed in E. coli) at 0.3 mg/mL; single particle reconstructions in C1 and D2; homology models fitted into the map
[2] = target: B2; assay: quantification of fluorescently stained SDS-PAGE bands of the purified complex; purified VvRsbR:VvRsbS complex separated by SDS PAGE, stained with Krypton, Typhoon scanner, bands quantified with ImageQuant; settings: both partners purified

Binder | stoichiometry N [1] | stoichiometry N [2]
B1 | 2 | 2.4 VvRsbR:VvRsbS
B2 | 2 | 
